# Laboratory results taken from PMC12714728 (npj Viruses, 2025).
# Starred links: 1 amine or outer side, 2 acyl side, 3 side chain; linkers in the order of their positions; H or OH if unused. Positions of bridges follow the written chain, without caps; N, C: chain ends. No end group written: not given here. Suc = O=C(CCC(=O)[*:2])[*:1]
# Legend:
# [1] = target: T1, hemagglutinin (HA) ectodomain of A/New Caledonia/20/1999 (H1N1) (influenza A virus A/New …, biotin on the BirA site); experiment: AlphaScreen or HTRF; conditions: both partners purified
# [2] = target: T1, hemagglutinin (HA) ectodomain of A/New …; experiment: cell-based or functional assay
Binder,IC50 [1] [µM],"virus neutralization assay (VNA) EC50, H1/NCa virus [2] [µM]"
CYRDPLGVAGEMC (not fully specified; cysteine pairing not given here) [cyclic peptide CP13],12.8,
"Suc-VSLYRDPLGVAGGMGVY-NH2 (source: synthetic peptide (manual solid phase Fmoc chemistry, RP-HPLC)) [linear peptide LP1]",22.9,
CYEDPLGVAGGMC (not fully specified; cysteine pairing not given here) [cyclic peptide CP12],4.95,58.3
"LYEDPLGVAGGMG (head-to-tail lactam cyclized (no template), source: synthetic peptide (manual solid phase Fmoc chemistry, RP-HPLC)) [cyclic peptide CP14]",1.24,45.3
"CYRDPLGVAGGMC (disulfide 1-13, source: synthetic peptide (manual solid phase Fmoc chemistry, iodine oxidation, RP-HPLC)) [cyclic peptide CP11]",4.99,
"CLYRDPLGVAGGMGC (not fully specified (bridges); cysteine pairing not given here, source: synthetic peptide (manual solid phase Fmoc chemistry, iodine oxidation, RP-HPLC)) [cyclic peptide CP8]",0.16,0.28
